According to patent US20250296984A1, “THERAPEUTIC AND DIAGNOSTIC AGENTS AND USES THEREOF” (priority 2022, published 2025):

B1: US28-13-5G6-1D3: monoclonal antibody against ECD3 of HCMV US28; VH SEQ ID NO: 12, VL SEQ ID NO: 18; rAb is the recombinant product (antibody, V domains shown)
VH: EVKLVESGGGLVQPGGSLRLACATSGFTFTDYYMSWVRQPPGKALEWLGFIRSKANGYTTEYSASVKGRFTISRDNSQSILYLQMNTLRSEDSATYYCARDERRTAWLAYWGQGTLVTVSA
VL: DVLMTQTPLSLPVSLGDQASISCRSSQSIVHSNGNTYLDWYLQKPGQSPKLLIYKVSNRFSGVPDRFSGSGSGTDFTLKISRVEAEDLGVYYCFQGSHVPTWTFGGGTKLEIK
modifications: Mature form of VH sequence of 1D3, without the leader sequence; Mature form of VL sequence of 1D3, without the leader sequence
notes: monoclonal antibody against ECD3 of HCMV US28; rAb is the recombinant product
B2: 13-5G6-1D3: mouse monoclonal IgG1 kappa antibody against US28 ECD3; VH SEQ ID NO: 12, VL SEQ ID NO: 18 (antibody, V domains shown)
VH: B1 VH
VL: B1 VL
modifications: Mature form of VH sequence of 1D3, without the leader sequence; Mature form of VL sequence of 1D3, without the leader sequence

Experiments:
[1] = molecular target: T1, Peptide-1 […] (SEQ ID NO: 6, 4N variant of ECD3 of US28) (Human cytomegalovirus, UniProt P69332, D170N); assay type: binding, human cytomegalovirus (HCMV); conditions: both ECD3 variants compared
T1 construct: made in house; host or cells: chemical synthesis
Description: The binding specificity of a binding molecule of the first aspect of the present invention having anti-ECD3 binding specificity in addition to the anti-SEQ ID NO: 177 specificity (and/or a second binding molecule having anti-ECD3 binding specificity with which a binding molecule of the first aspect of the present invention may be combined in a formulation) to an epitope within ECD3 of a US28 protein may, for example, be assessed in an ELISA, such as a methodology as described in the examples of this application, or by a variant of said methodology, such as by coating peptides derived from ECD3 (such as Bio-Peptide 1 and/or Bio-Peptide-2) on a first set of wells in a microtiter plate and coating a negative control (such as BSA) in a second set of wells in a microtiter plate. The first set of wells may optionally be further subdivided into a first subgroup of the first set of wells that comprises the sequence of a 4N-variant from ECD3 of US28, and a second subgroup of the first set of wells that comprises the sequence of a 4D-variant from ECD3 of US28, to permit the determination of the relative binding specificity to each variant. […]

[2] = test system: human heart muscle tissue; assay: IHC on human cardiac tissue samples (TMA with malignant pheochromocytoma positive control)
Description: FIG. 19. A. Flowcytometry analysis with the 28-13-5G6-1D3-PE antibody were conducted on various human primary cells to exclude general off-target binding to the surface of these cell types. The following cell lines were studied: human primary adrenal cortical cells, human primary kidney epithelial cells, human primary cardiac microvascular endothelial cells, human primary liver epithelial cells and human primary vein smooth muscle cells. […] B. Original human primary cardiac cells were not available, and human cardiac tissue samples were therefore studied for staining of 13-5G6-1D3 by immunohistochemistry. […] If there were HCMV infections present in the human heart, they were always of productive infection type. […] The positive 13-5G6-1D3 and HCMV ISH results are marked with arrows in the figure. A colour version of FIG. 19 is also provided.

[3] = test system: human primary cells (adrenal cortical, kidney epithelial, cardiac microvascular endothelial, liver epithelial, vein smooth muscle); assay: FACS off-target binding to human primary cells; conditions: FIG. 19 A
Description: Primary cells from different tissue origin were cultured in T25 flasks coated with 3 mL Gelatin-Based Coating Solution (Cellbiologeics, 6950) and placed at 37° C. for 1h. Excess solution was aspirated before cell seeding. 15 mL centrifuge tube were prepared with 6 mL preheated complete medium. Primary cells stored in liquid nitrogen were quickly thawed in 37° C. water bath for <1 min, and transferred to the 15 mL centrifuge tube. Cells were centrifuged at 1000 rpm for 5 minutes, before aspirating the supernatant and resuspending the cell pellet in 6 mL complete medium. Resuspended cells were added into the pre-coated T25 flask, and incubated in a humidified incubator at 37° C. with 5% CO2. […]
Flowcytometry was used to analyze cell surface binding by the US28 antibodies. Upon cell harvest, adherent non-infected and US28 overexpressing or HCMV infected cells were washed three times with cell staining buffer (phosphate-buffered saline (PBS (Amresco, Cleveland, 44139, USA) added 0.5% BSA and 0.05% Sodium Azide (NaN3)). The cells were trypisinized and then resuspended in DMEM with 10% FBS to inhibit the action of trypsin. The cells were then pelleted at 400×g for 10 minutes and washed three times in cell staining buffer. Cell viability and cell concentration were measured by tryphan blue viability assay and a cell counter (Countess, Invitrogen, Carlsbad, CA 92008, USA). […]

| Molecule | qualitative ELISA binding to Bio-Peptide-1 (4N) and Bio-Peptide-2 (4D) [1] | IHC staining of heart muscle tissue [2] | IHC staining of malignant pheochromocytoma ([2]; positive control on the same TMA plate) | surface binding on human primary cells [3] |
| --- | --- | --- | --- | --- |
| B1 | equal qualitative binding | negative |  |  |
| B2 |  |  | positive staining | < 1% |
